Measured values as given in article PMC3025077 (Peptides, 2010).

Legend:
[1] = target: T1, human Y5 receptor (Homo sapiens, UniProt Q15761); conditions: uncompeted specific binding at 50 pM [125I]agonist as percent of the specific binding of [125I]hNPY; human Y5 in HEK293 cells; ± S.E.M.; SEM
T1 sequence (Q15761 1-445): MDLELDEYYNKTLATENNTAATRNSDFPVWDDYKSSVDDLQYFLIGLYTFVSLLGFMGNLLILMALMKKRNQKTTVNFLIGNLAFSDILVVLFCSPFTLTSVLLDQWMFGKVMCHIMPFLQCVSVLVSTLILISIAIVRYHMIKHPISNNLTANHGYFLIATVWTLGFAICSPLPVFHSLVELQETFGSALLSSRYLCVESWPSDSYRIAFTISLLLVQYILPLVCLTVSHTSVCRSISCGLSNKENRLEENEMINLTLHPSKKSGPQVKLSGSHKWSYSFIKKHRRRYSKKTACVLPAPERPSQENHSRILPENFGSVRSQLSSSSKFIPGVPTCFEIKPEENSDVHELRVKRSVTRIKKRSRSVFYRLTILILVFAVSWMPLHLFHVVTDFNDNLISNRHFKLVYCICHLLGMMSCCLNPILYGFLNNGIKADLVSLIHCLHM

[2] = test system: hY1-CHO; test: Non-specific binding of agonists, saturation and time course, hY1-CHO; conditions: hyperbolic fit; 50 pM tracer at 100 nM unlabeled peptide over 3, 6, 10, 20 and 30 min at 25 °C

% of NPY binding, Y5 [1]: 96.5 ±16% | Half-period of equilibration of non-specific binding, hY1-CHO [2]: 1.72 ± 0.11 min
Substance: human (Leu^31,Pro^34) peptide YY [LP-hPYY]
